Assay results as given in article PMC10815852, “A Non-Functional Carbon Dioxide-Mediated Post-Translational Modification on Nucleoside Diphosphate Kinase of Arabidopsis thaliana” (International Journal of Molecular Sciences, 2024).
Values joined by “and” are separate entries in the source; they are usually repeats but may differ in a detail not shown here. Equal values may be shown once.

T1: AtNDK1 (Arabidopsis nucleoside diphosphate kinase 1) (Arabidopsis thaliana, UniProt P39207)
T1 construct: gene NDK1; full open reading frame in pGEX6P-1 (BamHI/EcoRI, synthetic), GST tag cut with PreScission protease, E. coli T7 Express, size exclusion purified, hexamer
T1 sequence (P39207 1-149): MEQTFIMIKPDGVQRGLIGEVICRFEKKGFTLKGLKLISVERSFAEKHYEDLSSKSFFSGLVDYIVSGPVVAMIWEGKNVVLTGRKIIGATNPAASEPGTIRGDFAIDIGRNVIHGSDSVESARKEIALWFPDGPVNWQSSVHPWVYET


Experiments:
[1] = target: T1, AtNDK1 (Arabidopsis nucleoside diphosphate kinase 1); test: NDK assay, ATP formation by ATP determination kit; type: biochemical
[2] = target: T1, AtNDK1 (Arabidopsis nucleoside diphosphate kinase 1); test: NDK assay, ATP formation by ATP determination kit; type: biochemical; conditions: substrate inhibition by ADP (fit of Michaelis-Menten data with 0-100 μM ADP); 50 μM GTP; 2 mM MgCl2, pH 7.6, 25 °C
[3] = target: the molecule itself; test: SEC; analytical SEC, Superose 6 increase 10/300 GL; 30 mM Tris pH 7.9, 200 mM NaCl, 1 mM DTT, 1 mM EDTA; sample ~1 mg/mL, 100 uL injected; size and oligomeric state approximated from retention volume and a standard curve; self-association (hexamer, dimer)
[4] = substrate: Nc1ncnc2c1ncn2[C@@H]1O[C@H](COP(=O)(O)OP(=O)(O)O)[C@@H](O)[C@H]1O; test: NDK assay, ATP formation by ATP determination kit; type: biochemical, Arabidopsis thaliana; conditions: 50 μM GTP fixed, 0-100 μM ADP, substrate inhibition model, 2 mM MgCl2, pH 7.6, 25 °C
[5] = substrate: Nc1nc2c(ncn2[C@@H]2O[C@H](COP(=O)(O)OP(=O)(O)OP(=O)(O)O)[C@@H](O)[C@H]2O)c(=O)[nH]1; test: NDK assay, ATP formation by ATP determination kit; type: biochemical, Arabidopsis thaliana; conditions: 35 μM ADP fixed, 0-100 μM GTP, 2 mM MgCl2, pH 7.6, 25 °C
[6] = target: the molecule itself; test: SEC; analytical SEC, Superose 6 increase 10/300 GL; 30 mM Tris pH 7.9, 200 mM NaCl, 1 mM DTT, 1 mM EDTA; sample ~1 mg/mL, 100 uL injected; size and oligomeric state approximated from retention volume and a standard curve; self-association (hexamer, dimer); remark: listed apart in the source

| Molecule | IC50 [1] [nM] | Ki [2] [nM] | relative absorbance maximum of the (AtNDK1)2 peak [3] | relative absorbance maximum of the (AtNDK1)6 peak [3] | Km [4] [µM] | Km [5] [µM] | stoichiometry N [6] |
| --- | --- | --- | --- | --- | --- | --- | --- |
| Nc1nc2c(ncn2[C@@H]2O[C@H](COP(=O)(O)OP(=O)(O)OP(O)(O)=S)[C@@H](O)[C@H]2O)c(=O)[nH]1 [GTPγS, guanosine 5′-O-[γ-thio] triphosphate] | 681 |  |  |  |  |  |  |
| Nc1ncnc2c1ncn2[C@@H]1O[C@H](COP(=O)(O)OP(=O)(O)O)[C@@H](O)[C@H]1O [ADP] |  | 132000 |  |  |  |  |  |
| Arabidopsis thaliana nucleoside diphosphate kinase 1 (AtNDK1), wild-type (enzyme, UniProt P39207 1-149, looked up, Arabidopsis thaliana NDK1, open reading frame cloned into BamHI/EcoRI of pGEX6P-1; Hexamer by analytical SEC; also called WT AtNDK1; Arabidopsis NDK1; source: E. coli T7 express, purified (GSTrap, PreScission cleavage, glutathione agarose, SEC); not shown: GST, N-terminal, cleaved) MEQTFIMIKPDGVQRGLIGEVICRFEKKGFTLKGLKLISVERSFAEKHYEDLSSKSFFSGLVDYIVSGPVVAMIWEGKNVVLTGRKIIGATNPAASEPGTIRGDFAIDIGRNVIHGSDSVESARKEIALWFPDGPVNWQSSVHPWVYET |  |  | 0.1 | 1 | 24.6 | 22.4 | 6 |
| AtNDK1-K9R (enzyme, Arabidopsis thaliana, UniProt P39207 1-149, looked up, Arabidopsis thaliana NDK1, mutant open reading frame cloned into BamHI/EcoRI of pGEX6P-1; Elutes as a mix of hexamer and dimer by analytical SEC; source: E. coli T7 express, purified (GSTrap, PreScission cleavage, glutathione agarose, SEC); not shown: GST, N-terminal, cleaved) MEQTFIMIRPDGVQRGLIGEVICRFEKKGFTLKGLKLISVERSFAEKHYEDLSSKSFFSGLVDYIVSGPVVAMIWEGKNVVLTGRKIIGATNPAASEPGTIRGDFAIDIGRNVIHGSDSVESARKEIALWFPDGPVNWQSSVHPWVYET |  |  | 0.25 | 1 |  |  | 6 and 2 |
| AtNDK1-K9A (enzyme, Arabidopsis thaliana, UniProt P39207 1-149, looked up, Arabidopsis thaliana NDK1, mutant open reading frame cloned into BamHI/EcoRI of pGEX6P-1; Elutes as a mix of hexamer and dimer by analytical SEC; source: E. coli T7 express, purified (GSTrap, PreScission cleavage, glutathione agarose, SEC); not shown: GST, N-terminal, cleaved) MEQTFIMIAPDGVQRGLIGEVICRFEKKGFTLKGLKLISVERSFAEKHYEDLSSKSFFSGLVDYIVSGPVVAMIWEGKNVVLTGRKIIGATNPAASEPGTIRGDFAIDIGRNVIHGSDSVESARKEIALWFPDGPVNWQSSVHPWVYET |  |  | 0.73 | 1 |  |  | 6 and 2 |
| AtNDK1-K9E (enzyme, Arabidopsis thaliana, UniProt P39207 1-149, looked up, Arabidopsis thaliana NDK1, mutant open reading frame cloned into BamHI/EcoRI of pGEX6P-1; Elutes as a mix of hexamer and dimer by analytical SEC, dimer peak the larger; source: E. coli T7 express, purified (GSTrap, PreScission cleavage, glutathione agarose, SEC); not shown: GST, N-terminal, cleaved) MEQTFIMIEPDGVQRGLIGEVICRFEKKGFTLKGLKLISVERSFAEKHYEDLSSKSFFSGLVDYIVSGPVVAMIWEGKNVVLTGRKIIGATNPAASEPGTIRGDFAIDIGRNVIHGSDSVESARKEIALWFPDGPVNWQSSVHPWVYET |  |  | 1 | 0.4 |  |  | 6 and 2 |
